From patent publication US20260184804A1 come the findings set out here.

The target in test [1] is Apical domain construct of hTfR1 displayed on M13 phage (human). The test is described as follows: Seqitope mutagenic scanning of the phage-displayed apical domain of hTfR1.
Test [2] addresses His-tagged ectodomain of cynomolgus transferrin receptor 1 (cTfR1), amino acids R121-F760 (cynomolgus monkey). The test is described as follows: SPR; binder captured on protein A, receptor as analyte 0.156-40 nM; with 250 nM hTf. A general note: SPR reads the build-up and loss of mass on a sensor chip optically.
Test [3] concerns the target His-tagged ectodomain of human transferrin receptor 1 (hTfR1), amino acids R121-F760 (human) (UniProt P02786). The test is described as above.
The target in test [4] is His-tagged ectodomain of cynomolgus transferrin receptor 1 (cTfR1), amino acids R121-F760 (cynomolgus monkey). As to the kind of experiment: SPR; binder captured on protein A, receptor as analyte 0.156-40 nM; no hTf.
Sequence of His-tagged ectodomain of cynomolgus transferrin receptor 1 (cTfR1), amino acids R121-F760 (cynomolgus monkey) (Q5RDH6 other isoform, or with tags, fused parts or gaps limits assumed): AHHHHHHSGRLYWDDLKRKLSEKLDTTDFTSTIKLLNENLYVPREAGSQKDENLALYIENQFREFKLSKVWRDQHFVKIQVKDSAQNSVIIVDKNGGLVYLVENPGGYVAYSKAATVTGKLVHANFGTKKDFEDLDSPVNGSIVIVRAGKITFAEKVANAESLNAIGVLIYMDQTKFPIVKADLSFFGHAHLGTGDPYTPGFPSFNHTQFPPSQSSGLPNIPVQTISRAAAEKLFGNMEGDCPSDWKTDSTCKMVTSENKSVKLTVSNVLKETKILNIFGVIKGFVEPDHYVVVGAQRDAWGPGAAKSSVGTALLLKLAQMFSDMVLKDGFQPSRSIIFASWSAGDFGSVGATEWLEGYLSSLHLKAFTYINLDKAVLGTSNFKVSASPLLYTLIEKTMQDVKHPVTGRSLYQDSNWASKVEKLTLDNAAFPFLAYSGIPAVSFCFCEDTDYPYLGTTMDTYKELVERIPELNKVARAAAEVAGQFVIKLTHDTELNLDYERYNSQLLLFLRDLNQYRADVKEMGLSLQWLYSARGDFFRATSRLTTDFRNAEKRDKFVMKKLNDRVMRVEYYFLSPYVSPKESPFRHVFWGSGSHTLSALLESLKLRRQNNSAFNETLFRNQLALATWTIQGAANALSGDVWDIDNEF
The target in test [5] is His-tagged ectodomain of human transferrin receptor 1 (hTfR1), amino acids R121-F760 (human) (UniProt P02786). Described as above.
Sequence of His-tagged ectodomain of human transferrin receptor 1 (hTfR1), amino acids R121-F760 (human) (P02786 other isoform, or with tags, fused parts or gaps limits assumed): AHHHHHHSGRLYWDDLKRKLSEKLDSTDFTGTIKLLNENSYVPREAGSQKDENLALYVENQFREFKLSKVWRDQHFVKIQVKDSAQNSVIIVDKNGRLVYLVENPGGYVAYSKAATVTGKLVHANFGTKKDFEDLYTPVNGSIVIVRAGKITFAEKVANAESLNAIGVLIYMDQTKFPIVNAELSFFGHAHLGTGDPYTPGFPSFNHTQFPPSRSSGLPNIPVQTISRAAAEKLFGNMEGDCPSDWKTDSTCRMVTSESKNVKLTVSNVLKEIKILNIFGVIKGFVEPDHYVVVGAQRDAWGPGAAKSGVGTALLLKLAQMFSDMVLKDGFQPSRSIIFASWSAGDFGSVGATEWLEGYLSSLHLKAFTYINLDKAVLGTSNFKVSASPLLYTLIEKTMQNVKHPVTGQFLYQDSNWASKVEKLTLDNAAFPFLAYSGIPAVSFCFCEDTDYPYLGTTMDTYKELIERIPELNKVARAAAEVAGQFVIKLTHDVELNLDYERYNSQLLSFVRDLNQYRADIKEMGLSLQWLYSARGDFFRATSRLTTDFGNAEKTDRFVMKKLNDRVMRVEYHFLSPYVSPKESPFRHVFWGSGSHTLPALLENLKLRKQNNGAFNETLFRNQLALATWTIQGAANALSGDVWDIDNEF
The target is the same in test [6]. The test is described as follows: SPR (Biacore T200, single-cycle); hTfR1 captured on amine-coupled hTf, binder as analyte 6.25-100 nM.

With “Benchmark antibody 128.1 (BA1), full length human IgG1”, in test [1], the Binding Ratio (BR) of residue D242 turned out to be 3.56, the Binding Ratio (BR) of residue E369 is 6.88, the Binding Ratio (BR) of residue G351 came to 3.27 and the Binding Ratio (BR) of residue L246 was found to be 3.36. For the same substance, in test [1], the Binding Ratio (BR) of residue P249 turned out to be 2.64, the Binding Ratio (BR) of residue R364 came out at 2.64 and the Binding Ratio (BR) of residue V366 is 4.15. Further, in test [2], the dissociation constant Kd came out at 0.33 nM, the koff worked out at 8e-05 s⁻¹ and the association rate constant (kon) was 242000 M⁻¹ s⁻¹. Moreover, in test [3], the Kd turned out to be 0.0834 nM, the koff stood at 5.77e-05 s⁻¹ and the kon worked out at 692000 M⁻¹ s⁻¹. Moreover, in test [4], the Kd stood at 0.414 nM, the koff turned out to be 8.85e-05 s⁻¹ and the kon is 214000 M⁻¹ s⁻¹. In test [5], this substance had a Kd of 0.101 nM, an off-rate constant (koff) of 8.87e-05 s⁻¹ and a kon of 882000 M⁻¹ s⁻¹. In test [6], this substance yielded a Kd of 0.0199 nM, a koff of 5.63e-05 s⁻¹ and an on-rate constant (kon) of 2.82e+06 M⁻¹ s⁻¹.

The Kd is the constant that tells how readily two partners part at equilibrium. Lower therefore signals a tighter complex. In general, koff refers to the rate constant with which the complex falls apart. A higher koff goes with fast dissociation. A word on the kon: it is a measure of how fast the partners come together.
